Substrate: N[C@@H](CC(=O)O)C(=O)O
Assay: purified protein
Settings: 300 mM Na+ outside, pH 7, 10 mM potassium phosphate, valinomycin, 300 mM KCl in lumen, mixed membrane orientation, no sybody, labelled compound

B1: GltTk (Thermococcus kodakarensis KOD1) (protein)
chain: MGKSLLRRYLDYPVLWKILWGLVLGAVFGLIAGHFGYAGAVKTYIKPFGDLFVRLLKMLVMPIVLASLVVGAASISPARLGRVGVKIVVYYLATSAMAVFFGLIVGRLFNVGANVNLGSGTGKAIEAQPPSLVQTLLNIVPTNPFASLAKGEVLPVIFFAIILGIAITYLMNRNEERVRKSAETLLRVFDGLAEAMYLIVGGVMQYAPIGVFALIAYVMAEQGVRVVGPLAKVVGAVYTGLFLQIVITYFILLKVFGIDPIKFIRKAKDAMITAFVTRSSSGTLPVTMRVAEEEMGVDKGIFSFTLPLGATINMDGTALYQGVTVLFVANAIGHPLTLGQQLVVVLTAVLASIGTAGVPGAGAIMLAMVLQSVGLDLTPGSPVALAYAMILGIDAILDMGRTMVNVTGDLAGTVIVAKTEKELDESKWIS
  Km: 0.70 ± 0.22 µM
  kcat: 0.895 s⁻¹

From publication PMC8211817
